± gives the uncertainty stated by the source.
B1: Gamma-crystallin C, residues 4 to 79; numbered along this chain, P07315 (parent)
chain: ITFYEDRAFQGRSYETTTDCPNLQPYFSRCNSIRVESGCWMLYERPNYQGQQYLLRRGEYPDYQQWMGLSDSIRSC

Variants of: B1
Assay: abundance fitness (aPCA) (normalised: wild type 0, dead -1); higher = more abundant; growth selection in yeast, the domain comes from the species named
Conditions: Homo sapiens

Variant	abundance fitness
ITFYEDRAFQGRSYETFTDCPNLQPYFSRCNSIRVESGCWMLYERPNYQGQQYLLRRGEYPDYQQWMGLSDSIRSC [T17F]	-0.152 ± 0.14
ITFYEDRAFQGRSYETCTDCPNLQPYFSRCNSIRVESGCWMLYERPNYQGQQYLLRRGEYPDYQQWMGLSDSIRSC [T17C]	0.054 ± 0.19
ITFYEDRAFQGRSYETATDCPNLQPYFSRCNSIRVESGCWMLYERPNYQGQQYLLRRGEYPDYQQWMGLSDSIRSC [T17A]	-0.014 ± 0.096
ITFYEDRAFQGRSYETITDCPNLQPYFSRCNSIRVESGCWMLYERPNYQGQQYLLRRGEYPDYQQWMGLSDSIRSC [T17I]	-0.227 ± 0.2
ITFYEDRAFQGRSYETDTDCPNLQPYFSRCNSIRVESGCWMLYERPNYQGQQYLLRRGEYPDYQQWMGLSDSIRSC [T17D]	-0.135 ± 0.16
ITFYEDRAFQGRSYETLTDCPNLQPYFSRCNSIRVESGCWMLYERPNYQGQQYLLRRGEYPDYQQWMGLSDSIRSC [T17L]	-0.089 ± 0.084
ITFYEDRAFQGRSYETETDCPNLQPYFSRCNSIRVESGCWMLYERPNYQGQQYLLRRGEYPDYQQWMGLSDSIRSC [T17E]	0.046 ± 0.14
ITFYEDRAFQGRSYETKTDCPNLQPYFSRCNSIRVESGCWMLYERPNYQGQQYLLRRGEYPDYQQWMGLSDSIRSC [T17K]	-0.119 ± 0.11
ITFYEDRAFQGRSYNTTTDCPNLQPYFSRCNSIRVESGCWMLYERPNYQGQQYLLRRGEYPDYQQWMGLSDSIRSC [E15N]	0.075 ± 0.28
ITFYEDRAFQGRSYMTTTDCPNLQPYFSRCNSIRVESGCWMLYERPNYQGQQYLLRRGEYPDYQQWMGLSDSIRSC [E15M]	-0.013 ± 0.15
ITFYEDRAFQGRSYKTTTDCPNLQPYFSRCNSIRVESGCWMLYERPNYQGQQYLLRRGEYPDYQQWMGLSDSIRSC [E15K]	0.165 ± 0.33
ITFYEDRAFQGRSYYTTTDCPNLQPYFSRCNSIRVESGCWMLYERPNYQGQQYLLRRGEYPDYQQWMGLSDSIRSC [E15Y]	-0.057 ± 0.2
ITFYEDRAFQGRSYPTTTDCPNLQPYFSRCNSIRVESGCWMLYERPNYQGQQYLLRRGEYPDYQQWMGLSDSIRSC [E15P]	-0.072 ± 0.14
ITFYEDRAFQGRSYWTTTDCPNLQPYFSRCNSIRVESGCWMLYERPNYQGQQYLLRRGEYPDYQQWMGLSDSIRSC [E15W]	0.069 ± 0.14
ITFYEDRAFQGRSYQTTTDCPNLQPYFSRCNSIRVESGCWMLYERPNYQGQQYLLRRGEYPDYQQWMGLSDSIRSC [E15Q]	0.026 ± 0.18
ITFYEDRAFQGRSYVTTTDCPNLQPYFSRCNSIRVESGCWMLYERPNYQGQQYLLRRGEYPDYQQWMGLSDSIRSC [E15V]	-0.073 ± 0.11
ITFYEDRAFQGRSYSTTTDCPNLQPYFSRCNSIRVESGCWMLYERPNYQGQQYLLRRGEYPDYQQWMGLSDSIRSC [E15S]	0.005 ± 0.081
ITFYEDRAFQGRSYEQTTDCPNLQPYFSRCNSIRVESGCWMLYERPNYQGQQYLLRRGEYPDYQQWMGLSDSIRSC [T16Q]	0.027 ± 0.081

Variant	abundance fitness
ITFYEDRAFQGRSYECTTDCPNLQPYFSRCNSIRVESGCWMLYERPNYQGQQYLLRRGEYPDYQQWMGLSDSIRSC [T16C]	0.003 ± 0.13
ITFYEDRAFQGRSYEGTTDCPNLQPYFSRCNSIRVESGCWMLYERPNYQGQQYLLRRGEYPDYQQWMGLSDSIRSC [T16G]	-0.089 ± 0.058
ITFYEDRAFQGRSYEPTTDCPNLQPYFSRCNSIRVESGCWMLYERPNYQGQQYLLRRGEYPDYQQWMGLSDSIRSC [T16P]	-0.342 ± 0.18
ITFYEDRAFQGRSYERTTDCPNLQPYFSRCNSIRVESGCWMLYERPNYQGQQYLLRRGEYPDYQQWMGLSDSIRSC [T16R]	-0.078 ± 0.081
ITFYEDRAFQGRSYESTTDCPNLQPYFSRCNSIRVESGCWMLYERPNYQGQQYLLRRGEYPDYQQWMGLSDSIRSC [T16S]	-0.034 ± 0.093
ITFYEDRAFQGRSYEDTTDCPNLQPYFSRCNSIRVESGCWMLYERPNYQGQQYLLRRGEYPDYQQWMGLSDSIRSC [T16D]	-0.215 ± 0.066
ITFYEDRAFQGRSYEHTTDCPNLQPYFSRCNSIRVESGCWMLYERPNYQGQQYLLRRGEYPDYQQWMGLSDSIRSC [T16H]	0.007 ± 0.096
ITFYEDRAFQGRSYEYTTDCPNLQPYFSRCNSIRVESGCWMLYERPNYQGQQYLLRRGEYPDYQQWMGLSDSIRSC [T16Y]	0.202 ± 0.17
ITFYEDRAFQGRSYEITTDCPNLQPYFSRCNSIRVESGCWMLYERPNYQGQQYLLRRGEYPDYQQWMGLSDSIRSC [T16I]	-0.098 ± 0.13
ITFYEDRAFQGRSYEATTDCPNLQPYFSRCNSIRVESGCWMLYERPNYQGQQYLLRRGEYPDYQQWMGLSDSIRSC [T16A]	0.074 ± 0.091
ITFYEDRAFQGRSYENTTDCPNLQPYFSRCNSIRVESGCWMLYERPNYQGQQYLLRRGEYPDYQQWMGLSDSIRSC [T16N]	-0.116 ± 0.13
ITFYEDRAFQGRSYEMTTDCPNLQPYFSRCNSIRVESGCWMLYERPNYQGQQYLLRRGEYPDYQQWMGLSDSIRSC [T16M]	0.074 ± 0.17
ITFYEDRAFQGRSYELTTDCPNLQPYFSRCNSIRVESGCWMLYERPNYQGQQYLLRRGEYPDYQQWMGLSDSIRSC [T16L]	0.013 ± 0.086
ITFYEDRAFQGRSYEFTTDCPNLQPYFSRCNSIRVESGCWMLYERPNYQGQQYLLRRGEYPDYQQWMGLSDSIRSC [T16F]	0.084 ± 0.1
ITFYEDRAFQGRSYEVTTDCPNLQPYFSRCNSIRVESGCWMLYERPNYQGQQYLLRRGEYPDYQQWMGLSDSIRSC [T16V]	0.031 ± 0.083
ITFYEDRAFQGRSYEWTTDCPNLQPYFSRCNSIRVESGCWMLYERPNYQGQQYLLRRGEYPDYQQWMGLSDSIRSC [T16W]	0.012 ± 0.085
ITFYEDRAFQGRSYEKTTDCPNLQPYFSRCNSIRVESGCWMLYERPNYQGQQYLLRRGEYPDYQQWMGLSDSIRSC [T16K]	-0.011 ± 0.18
ITFYEDRAFQGRSYEETTDCPNLQPYFSRCNSIRVESGCWMLYERPNYQGQQYLLRRGEYPDYQQWMGLSDSIRSC [T16E]	-0.291 ± 0.12
